Experimental data as given in the DeepSol protein solubility set.

Experiment: soluble on expression in E. coli; label from the status in PepcDB or PDB records

Sequence	soluble on expression in E. coli
MAATSSTSSQSFDIELDIIGQQPPLLSIYTQISLVYPVSDPSQYPTIVSTLEEGLKRLSQTFPWVAGQVKTEGISEGNTGTSKIIPYEETPRLVVKDLRDDSSAPTIEGLRKAGFPLEMFDENVVAPRKTLAIGPGNGPNDPKPVLLLQLNFIKGGLILTVNGQHGAMDMTGQDAIIRLLSKACRNESFTEEEISAMNLDRKTVVPLLENYKVGPELDHQIAKPAPAGDAPPAPAKATWAFFSFTPKALSELKDAATKTLDASSKFVSTDDALSAFIWQSTSRVRLARLDASTPTEFCRAVDMRGPMGVSSTYPGLLQNMTYHDSTVAEIANEPLGATASRLRSELNSDRLRRRTQALATYMHGLPDKSSVSLTADANPSSSIMLSSWAKVGCWEYDFGFGLGKPESVRRPRFEPFESLMYFMPKKPDGEFTASISLRDEDMERLKADEEWTKYAKYIG	soluble
MNASLYQQYVQAKAEHPGKYARDLATLMGISEAELTHSRVGHDAKRLQSDARALLAALESVGEVKAITRNTYAVHEQVGRYENQHLNGHAGLILNPRALDLRLFLNQWASAFTLTEETRHGVRHSIQFFDHQGDALHKVYVTEQTDMSAWEALLAQFIIPENPALQLEPLSTPEAVEPTADDATVDSEWRAMTDVHQFFQLLKRNNLTRQQAFRAVGDDLAYQVDNNSLTQLLHIAQQDQNEIMIFVGNRGCVQIFTGLIEKVTPHNEWINVFNQRFTLHLIETAIAESWITRKPTKDGFVTSLELFAADGTQLAQLYGQRTEGQPEQNQWREQIARLINKDIAA	not soluble
MSLNVIDLFSGVGGLSLGAARAGFDVKMAVEIDQHAINTHAINFPRSLHVQEDVSLLNAEIIKGFFKNDMPIDGIIGGPPCQGFSSIGKGNPDDSRNQLYMHFYRLVSELQPLFFLAENVPGIMQEKYSGIRNKAFNLVSGDYDILDPIKVKASDYGAPTIRTRYFFIGVKKSLKLDISDEVFMPKMIDPVTVKDALYGLPDIIDANWQSDSESWRTIKKDRKGGFYEKLWGQIPRNVGDTESIAKLKNNIISGCTGTLHSKIVQERYASLSFGETDKISRSTRLDPNGFCPTLRAGTARDKGSFQAVRPIHPYHPRVITPREAARLQGFPDWFRFHVTKWHSFRQIGNSVSPIVAEYILKGLYNLLNKRVQPEYLNHNSLEVREGHHHHHH	soluble
MSLNNIDNIINFINKTPKSELHLHIEGSLEPELMFKLSKRNKIEIPFKSVEDIKSAYNFSNLDSFLKIYYEGSNVLITEEDFFDLTWEYILRCKKDNIVHTEIFFDPQSHTSRGIKFDIIINGIHKALAKANDEFGITSKIIMCFLRHLDEKLCFDVLKDAIQHKDKIIGVGLDSSEKGNPPKKFKRLFEEAIKEGFLTVAHAGEEGPPEYIWDSLNLLKVKRIDHGVQCLKDDDLVKNLKENNIPLTVCPLSNIKLCVFDKLENHNLKKMLEKGLRVMVNSDDPAYFGGYLNKNLIEISKALNLNLEQVKVLIQNSFKSSFLDKKSKSKWLSKVEGHHHHHH	soluble
MNENQLSKRLATVGDLIPRGSRLADIGSDHAYLPVALMLENKLSFAVAGEVVEGPYQSAKTQVSKSNLTDKIIVRLANGLDAIEPEDQIDVISICGMGGTLIRDILEAGRKKNRLTGKERLVLQPNIGEPTLRRWLMANDYSIIDETIVEENRKLYEIIVAEKTEQSVSYTDQELLFGPVLIKKQGPVFTKKWQRELKQRKTVLAQLAKASGEHIEKQAKLQQDQQLIEEVLANGCER	not soluble
MSVELWQQCVDLLRDELPSQQFNTWIRPLQVEAEGDELRVYAPNRFVLDWVNEKYLGRLLELLGERGEGQLPALSLLIGSKRSRTPRAAIVPSQTHVAPPPPVAPPPAPVQPVSAAPVVVPREELPPVTTAPSVSSDPYEPEEPSIDPLAAAMPAGAAPAVRTERNVQVEGALKHTSYLNRTFTFENFVEGKSNQLARAAAWQVADNLKHGYNPLFLYGGVGLGKTHLMHAVGNHLLKKNPNAKVVYLHSERFVADMVKALQLNAINEFKRFYRSVDALLIDDIQFFARKERSQEEFFHTFNALLEGGQQVILTSDRYPKEIEGLEERLKSRFGWGLTVAVEPPELETRVAILMKKAEQAKIELPHDAAFFIAQRIRSNVRELEGALKRVIAHSHFMGRPITIELIRESLKDLLALQDKLVSIDNIQRTVAEYYKIKISDLLSKRRSRSVARPRQVAMALSKELTNHSLPEIGVAFGGRDHTTVLHACRKIAQLRESDADIREDYKNLLRTLTT	not soluble
MIELEGVPELIDPVMVAAFEGWNDAGDAASTAVAHLDREWKGEVFAALDAEDYYDFQVNRPTVWLDGGVRKITWPTTRLSVVRVGGEKPRDLVLVRGIEPSMRWRSFCNELLAFAHELGVELVVVLGALLGDTPHTRPVPVSGVTSDPDLARTMDLEETKYEGPTGIVGILQEACTHAGVPAVSLWAAVPHYVSQPPNPKATLALLNRLEDLIDVRIPLGELPEDARAWQVGVDQLAAEDSEVAEYVQSLEEARDTAELPEASGEAIAREFERYLRRRDGGGPAAGGHATADGSDGTSYLRDAPGGRTRPPKPPKPEAEDDGPADEGSDDSSED	not soluble
MIIKPRIRGFICTTTHPVGCEANVKEQIAYTKAQGPIKNAPKRVLVVGASSGYGLSSRIAAAFGGGASTIGVFFEKEGTEKKPGTAGFYNAAAFEKLAREEGLYAKSLNGDAFSNEAKQKTIDLIKEDLGQVDMVVYSLASPVRKMPETGELIRSALKPIGETYTSTAVDTNKDVIIEASVEPATEEEIKDTVTVMGGEDWELWINALSDAGVLAEGCKTVAYSYIGTELTWPIYWDGALGKAKMDLDRAAKALNEKLGATGGSANVAVLKSVVTQASSAIPVMPLYIAMVFKKMREEGVHEGCMEQIYRMFSQRLYKEDGSAAEVDDMNRLRLDDWELREDIQQHCRELWPQITTENLKELTDYVEYKEEFLKLFGFGVEGVDYEADV	not soluble
MSLNFDFAENDFRPLAARMRPRTLDEYCGQQHLIGQGKPLRRAIESGHAHSMILWGPPGTGKTTLAEIIAYRINAEVERLSAVTSGVKDIREAIERAKRNRLADRQTILFVDEVHRFNKSQQDAFLPHIEDGTIIFIGATTENPSFELNNALLSRTRVYILKSLTTADVQRVLQQAVADEERGLGKARLNLQANLLHLLAEYVNGDARLALNCLELMADMAEEDENGKKIDRTLLTEVLGERQARFDKGGDRFYDLISAVHKSIRGSAPDAALYWYARIITAGGDPLYVARRLLAIASEDIGNADPRAMQVALSAWDCFTRVGAAEGERAIAQAIVYLAVAPKSNAVYQAFNAAKALAKQAPDYDVPRHLTNAPTQLLKELGNHAEYRYAHDEPNAYAAGENYFPEPLKDTRFYFPGARGMEIKIKEKLDWLRNLDQQSENIREGHHHHHH	not soluble
MGSDKIHHHHHHMADNFLSQEEVDALLRGVTNEQEDDTPALDPAGVREYNLATQERIVRGRMPTLEIINERFARLLRIGLFNFLRRTTEVSVGPVKISKYSEFIRNLVVPTNLNLVQMKPLRGTALMVFDPTLVFLIVDNLFGGDGRFHTRVEGRDFTQTEQRIIQRVLAIVFETYAKSWEPVYKLEFEYIRSEMNTQFANIATPNEVVVSTTFNIELGSASGEIHFCFPYSMIEPIRDLLTSPLQGEALGVDKRWVRLMTQQIQSAEVMLIADLAKAEMTLGDILNMKVGDVIPLSISEEIEAKVDNVPVMQCKYGVFNGQYALRVEKLLRSNSSEYVKGEVPDGD	not soluble
VTVRMDPQRFDELVSDALDLIPPELADAMDNVVVLVANRHPQHENLLGQYEGVALTERGSDYAGSLPDAITIYREALLDACDSEDEVVDQVAITVIHEVAHHFGIDDERLDQLGWRDEPAPGRGNPDLSAPDAMNGP	soluble
MKSIIIAAPHSGSGKTTITLGIMECLKRRGLTVAPFKVGPDFIDPGYHRLICGRPSVNLDGWMCGGDFVQETFFHHAAGADIAVVEGVMGLFDGIGGVSDEGSTAEVAKLLGGPVVLVADAKGQARSVAALVKGFADFDPEVRVVGVIFNNVASDAHGRILREAVESHLPDVRVLGCIPRDESLSIPSRHLGLFTVDENPLPAEFLDHLVEVVREHVDLGMLWSVATLQGASDVKRRQDAPRREPVRIGVARDAAFCFVYEDNLRLLREAGAELVEFSPLADRELPEGVAGLYLPGGYPEVFADVLADNTPMKDAVRGAVVGEMPVYAECGGFIYLSRGVTGMRDDLESFNEFVGIFPVATLMLPRRKALGYREVELAADSIIGPVGAMARGHEFHYSEMEAMPPEVERLYRVRRAGIDLGTEGYRHRNCLASYVHIHFGSCPDMAEAFVNHCRNYAQRSHSLEHHHHHH	soluble
